Experimental data as given in PMC6975927.

Legend:
[1] = target: SCF^FBW7 (CUL1-RBX1 with FBW7(263-C-terminus)-SKP1 complex) (human) (UniProt Q13616)
[2] = target: SCF^βTRCP (CUL1-RBX1 with full-length βTRCP2 (FBW11)-SKP1 complex) (human) (UniProt Q13616)

Chain of UBE2D3 (P61077 whole entry): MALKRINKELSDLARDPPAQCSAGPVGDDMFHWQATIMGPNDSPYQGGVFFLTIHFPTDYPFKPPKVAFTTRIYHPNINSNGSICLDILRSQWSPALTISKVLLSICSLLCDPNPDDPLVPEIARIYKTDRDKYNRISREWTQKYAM

Molecule | KM of UBE2D3 in multi-turnover ubiquitylation of 32P-labeled Cyclin E peptide by SCF^FBW7 [1] | KM of UBE2D3 in multi-turnover ubiquitylation of 32P-labeled β-Catenin peptide by SCF^βTRCP [2] | KM of UBE2G1 in multi-turnover ubiquitylation of 32P-labeled mono-ubiquitylated Cyclin E peptide (Ub-Cyclin E) by SCF^FBW7 [1]
UBE2D3 (from UniProt P61077 1-147) (enzyme) | 1.67 µM | 0.488 µM | 
UBE2G1 (enzyme) MTELQSALLLRRQLAELNKNPVEGFSAGLIDDNDLYRWEVLIIGPPDTLYEGGVFKAHLTFPKDYPLRPPKMKFITEIWHPNVDKNGDVCISILHEPGEDKYGYEKPEERWLPIHTVETIMISVISMLADPNGDSPANVDAAKEWREDRNGEFKRKVARCVRKSQETAFE |  |  | 1.3 µM
